Source: US20230340098A1 (SHANGHAI HENLIUS BIOTECH, published 2023)
Numbering of substitutions follows the chain as printed. Like-named read-outs stand apart in the source and are kept apart here. One block for each binder: values may come before it.

Experiments:
[1] = biological target: T1, human GARP protein not in any GARP/TGFβ1 complex (protein used in ELISA and Octet) (human, UniProt Q14392 20-627, limits assumed); assay: Octet
T1 construct: Coated on plates at 2 µg/ml in the ELISA; also called hGARP; human GARP alone
T1 sequence (looked up): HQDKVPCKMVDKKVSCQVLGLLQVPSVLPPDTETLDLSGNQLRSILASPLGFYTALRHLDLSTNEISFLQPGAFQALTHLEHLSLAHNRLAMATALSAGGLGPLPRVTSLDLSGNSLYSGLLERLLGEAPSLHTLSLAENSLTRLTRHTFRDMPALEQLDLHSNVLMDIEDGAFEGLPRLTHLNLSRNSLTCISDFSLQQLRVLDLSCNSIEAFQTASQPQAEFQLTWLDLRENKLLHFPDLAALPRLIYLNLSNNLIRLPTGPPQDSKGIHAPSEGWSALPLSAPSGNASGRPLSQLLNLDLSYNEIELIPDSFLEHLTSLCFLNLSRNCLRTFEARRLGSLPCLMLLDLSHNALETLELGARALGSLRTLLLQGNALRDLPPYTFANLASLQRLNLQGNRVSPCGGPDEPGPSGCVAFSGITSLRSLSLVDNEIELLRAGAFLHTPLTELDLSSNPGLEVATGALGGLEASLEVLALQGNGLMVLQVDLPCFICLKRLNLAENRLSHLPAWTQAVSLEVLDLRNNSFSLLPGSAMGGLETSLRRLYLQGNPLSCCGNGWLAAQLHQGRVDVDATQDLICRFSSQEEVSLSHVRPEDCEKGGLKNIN

[2] = biological target: T2, human GARP/TGFβ1 complex (protein used in ELISA and Octet) (human, UniProt Q14392 20-627; P01137 30-390, limits assumed); assay: Octet
T2 construct: Coated on plates at 4 µg/ml in the ELISA; also called hGARP/TGFβ1; human GARP/latent TGFβ1 complex

[3] = biological target: T3, human GARP/latent TGFβ1 complex on cells (human, UniProt Q14392 20-662; P01137 30-390); assay: flow cytometry on human GARP/latent TGFβ1 transfected CHO-S cells, goat anti-human IgG(H+L) FITC
T3 construct: whole, on cells; also called human GARP/TGFβ1 complex; human GARP/TGFβ complex

[4] = biological target: T4, mouse GARP/latent TGFβ1 complex on transfected CHO-S cells (mouse); assay: flow cytometry on mouse GARP/latent TGFβ1 transfected CHO-S cells, goat anti-human IgG(H+L) FITC
T4 construct: also called mouse GARP/TGFβ1 complex; mouse GARP/TGFβ complex

[5] = biological target: T3, human GARP/latent TGFβ1 complex on cells; assay: flow cytometry on human GARP/latent TGFβ1 transfected CHO-S cells, goat anti-human IgG(H+L) FITC; remark: listed apart in the source

Kd [1]: 429 pM | Kd [2]: 696 pM
B1: Clone hGA17 (antibody, human IgG1, kappa, V domains shown)
VH: QVQLVQSGAEVKKPGASVKVSCKASGFNIKDTYFHWVRQAPGQGLEWMGRIDPTNGNGRYAQKFQGRVTMTRDTSTSTVYMELSSLRSEDTAVYYCATSTGTGYFALVYWGQGTTVTVSS
VL: DIQLTQSPSFLSASVGDRVTITCKASQNVGSAVAWYQQKPGKAPKLLIYWSSTRHTGVPSRFSGSGSGTEFTLTISSLQPEDFATYYCQQYSNYPLTFGGGTKLEIKR
notes: Humanized form of mouse clone GA17; kappa light chain

EC50 (read off the curve) [3]: ~1 µg/mL
B2: Clone GA1#7 (antibody, V domains shown)
VH: QVQLVQSGGGVVQPGRSLRLSCAASGFTFSSYAMHQVRQAPGKGLEWVAVISYDGSQKYYADSVKGRFTISRDNSKNTLYLQMNSLRAEDTAVYYCARDALRTYYYYGMDVWGQGTTVTVSS
VL: SYELTQPPSVSVSPGQTARITCSGDALPDRYTYWYQQKPGQAPVLVIYSDNERPSGIPERFSGSSSGTTATLTINGVQAEDEADYYCQSSDDTYTFGGGTKLTVL

EC50 (read off the curve) [3]: ~1 µg/mL | EC50 (read off the curve) [4]: ~0.2 µg/mL | EC50 (read off the curve) [5]: ~0.6 µg/mL
B3: Clone GA1 (antibody, V domains shown)
VH: B2 VH with Q57N, A100V
VL: B2 VL with S13F, T69I, S90A

EC50 (read off the curve) [3]: ~1 µg/mL | Kd [2]: 281 pM
B4: Clone GA1#8 (antibody, V domains shown)
VH: B2 VH with V50S, Q57N, Y107Q
VL: B2 VL with S55R, S90A, D92Y
